Reference: PMC10907721
Positions count from the first letter of the chain named.

Columns and labels:
Test in all cases: EMSA
Conditions in all cases: EMSA: 20 mM Tris-HCl pH 7.5, 25 mM NaCl, 2 mM beta-mercaptoethanol, 10% glycerol; 50 nM nucleosome or DNA; 15 min room temperature; 6% TBE-acrylamide gel, 0.2X …
[1] = target: T1, Hop1 CBR loop 1 mutant N362A;H365A (Saccharomyces cerevisiae) (UniProt P20050)
T1 sequence: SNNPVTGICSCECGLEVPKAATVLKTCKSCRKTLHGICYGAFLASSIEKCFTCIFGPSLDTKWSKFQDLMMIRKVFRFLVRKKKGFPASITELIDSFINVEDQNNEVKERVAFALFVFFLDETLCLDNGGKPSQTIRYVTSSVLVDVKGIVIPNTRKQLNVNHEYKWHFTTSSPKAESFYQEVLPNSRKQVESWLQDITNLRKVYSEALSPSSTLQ

[2] = target: T2, Hop1 CBR loop 1+2 mutant N362A;H365A;R402A;K403A;K404A;K405A (Saccharomyces cerevisiae) (UniProt P20050)
T2 sequence: T1 sequence with R81A, K82A, K83A, K84A

[3] = target: T3, Hop1 CBR loop 1+2+3 mutant N362A;H365A;R402A;K403A;K404A;K405A;K452A;R458A (Saccharomyces cerevisiae) (UniProt P20050)
T3 sequence: T1 sequence with R81A, K82A, K83A, K84A, K131A, R137A

[4] = target: T4, Hop1 CBR loop 1+3 mutant N362A;H365A;K452A;R458A (Saccharomyces cerevisiae) (UniProt P20050)
T4 sequence: T1 sequence with K131A, R137A

[5] = target: T5, Hop1 CBR loop 3 mutant K452A;R458A (Saccharomyces cerevisiae) (UniProt P20050)
T5 sequence: T1 sequence with A41N, A44H, K131A, R137A

[6] = target: T6, Hop1 CBR loop2 mutant R402A;K403A;K404A;K405A (Saccharomyces cerevisiae) (UniProt P20050)
T6 sequence: T1 sequence with A41N, A44H, R81A, K82A, K83A, K84A

[7] = target: T7, Hop1 CBR loop2+3 mutant R402A;K403A;K404A;K405A;K452A;R458A (Saccharomyces cerevisiae) (UniProt P20050)
T7 sequence: T1 sequence with A41N, A44H, R81A, K82A, K83A, K84A, K131A, R137A

TGGAGAATCCCGGTGCCGAGGCCGCTCAATTGGTCGTAGACAGCTCTAGCACCGCTTAAACGCACGTACGCGCTGTCCCCCGCGTTTTAACCGCCAAGGGGATTACTCCCTAGTCTCCAGGCACGTGTCAGATATATACATCCTGT (double strand) [Widom 601 mononucleosome (human histones)]
Kd [1]: 2 µM
Kd [2]: > 50 µM
Kd [3]: > 50 µM
Kd [4]: 13 µM
Kd [5]: 50 µM
Kd [6]: > 50 µM
Kd [7]: > 50 µM
